How the values were obtained:
[1] = molecular target: T1, FcRn of neonatal mouse intestine (mouse) (UniProt Q61559); assay: cell-based or functional assay
T1 sequence (looked up): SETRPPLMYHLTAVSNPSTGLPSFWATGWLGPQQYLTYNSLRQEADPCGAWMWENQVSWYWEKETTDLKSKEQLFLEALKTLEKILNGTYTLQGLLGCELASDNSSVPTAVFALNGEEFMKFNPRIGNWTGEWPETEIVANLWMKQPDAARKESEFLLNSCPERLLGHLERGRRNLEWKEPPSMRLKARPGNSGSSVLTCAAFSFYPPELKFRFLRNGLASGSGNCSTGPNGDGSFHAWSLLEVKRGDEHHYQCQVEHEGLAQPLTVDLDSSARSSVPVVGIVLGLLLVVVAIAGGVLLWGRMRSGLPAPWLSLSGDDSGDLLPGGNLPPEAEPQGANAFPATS
T1 sequence (b2m, looked up): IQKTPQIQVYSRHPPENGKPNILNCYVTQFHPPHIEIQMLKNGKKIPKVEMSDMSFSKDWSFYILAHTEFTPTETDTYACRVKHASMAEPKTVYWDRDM

[2] = molecular target: Staphylococcal protein A (Staphylococcal) (UniProt P38507); assay: direct binding of 125I-Fc-hinge fragments to SpA-agarose, pH 7.5
[3] = molecular target: recombinant soluble mouse FcRn (mouse) (UniProt Q61559); assay: inhibition of 125I-sFcRn binding to murine IgG1-Sepharose; molar ratio of inhibitor/FcRn given as 1/1000
[4] = molecular target: recombinant soluble mouse FcRn (mouse) (UniProt Q61559); assay: inhibition of 125I-sFcRn binding to murine IgG1-Sepharose; molar ratio of inhibitor/FcRn given as 1/500
[5] = molecular target: complete murine IgG1 molecule (mouse); assay: 125I-sFcRn on mIgG1-Sepharose, incubation at pH 7.5 (931,302 cpm added)
[6] = molecular target: complete murine IgG1 molecule (mouse); assay: 125I-sFcRn on mIgG1-Sepharose, incubation at pH 7.5 (943,936 cpm added)
[7] = molecular target: complete murine IgG1 molecule (mouse); assay: 125I-sFcRn on mIgG1-Sepharose, incubation at pH 7.5 (958,958 cpm added)
[8] = molecular target: complete murine IgG1 molecule (mouse); assay: 125I-sFcRn on mIgG1-Sepharose, incubation at pH 6.0 in presence of 500 ug free mIgG1 (937,985 cpm added)
[9] = molecular target: complete murine IgG1 molecule (mouse); assay: 125I-sFcRn on mIgG1-Sepharose, incubation at pH 6.0 (937,685 cpm added)
[10] = molecular target: complete murine IgG1 molecule (mouse); assay: 125I-sFcRn on mIgG1-Sepharose, incubation at pH 6.0 (913,948 cpm added)
[11] = molecular target: recombinant soluble mouse FcRn (mouse) (UniProt Q61559); assay: SPR (BIAcore 2000), FcRn coupled to CM5 chip, Fc-hinge 100-300 nM in flow, pH 6.0

Work on “Fc fragment of murine IgG1 produced by papain digestion (from UniProt P01868 98-324)” yielded an Inhibition of transmission (%) of radiolabeled mIgG1 across the intestine of neonatal mice [1] of 62.5%.

For “Fc-hybrid (heterodimer of WT Fc-hinge and HQ-310/HN-433 mutant)”, the Inhibition of transmission (%) of radiolabeled mIgG1 across the intestine of neonatal mice [1] was 21.5%.

With H310A and H435A the SpA binding, % of WT Fc-hinge [2] was 9 to 12 % of WT.

In the case of HN-433 mutant Fc-hinge fragment, the Inhibition of transmission (%) of radiolabeled mIgG1 across the intestine of neonatal mice [1] is reported as 44.4%.

In the case of HQ-310 mutant Fc-hinge fragment, the % inhibition [3] is reported as 6.1%, the % inhibition [4] is reported as 1.6% and the Inhibition of transmission (%) of radiolabeled mIgG1 across the intestine of neonatal mice [1] is reported as 8.9%.

“HQ-310/HN-433 mutant Fc-hinge fragment (from UniProt P01868 98-324)” was tested, and the % inhibition [3] was 4% and the % inhibition [4] was 0.2%.

Work on “I253A mutant Fc-hinge fragment (from UniProt P01868 98-324)” yielded a % inhibition [3] of 6.5% and a % inhibition [4] of 2.3%.

Work on “bovine serum albumin (from UniProt P02769 25-607)” yielded an Inhibition of transmission (%) of radiolabeled mIgG1 across the intestine of neonatal mice [1] of 8.9%.

“recombinant soluble mouse FcRn (from UniProt Q61559 22-290; P01887 21-119) (receptor)” gave a bound radioactivity [5] of 19600 cpm, a bound radioactivity after pH 7.5 wash [5] of 16800 cpm and a bound radioactivity [6] of 11600 cpm. The bound radioactivity after pH 7.5 wash [6] was 10300 cpm, the bound radioactivity [7] was 12300 cpm and the bound radioactivity after pH 7.5 wash [7] was 9470 cpm. For the same substance, the bound radioactivity [8] was 70700 cpm, the bound radioactivity after pH 7.5 wash [8] was 26500 cpm and the bound radioactivity [9] was 228000 cpm. It also gave a bound radioactivity after pH 7.5 wash [9] of 42700 cpm, a bound radioactivity [10] of 271000 cpm and a bound radioactivity after pH 7.5 wash [10] of 42600 cpm.

Work on “wild type (WT) Fc-hinge fragment derived from murine IgG1 (from UniProt P01868 98-324)” yielded a % inhibition [3] of 34.1%, a % inhibition [4] of 18.4% and a Kd [11] of 7.44 nM. It also gave a koff [11] of 0.00461 s⁻¹ and a kon [11] of 620000 M⁻¹ s⁻¹.

Source: patent US20020098193A1
